In patent US8022178B2, “Modified self-assembling peptides” (Massachusetts Institute of Technology, priority 2006, dated 2011):

Tests used:
[1] = system: HUVEC (human umbilical vein endothelial cells); test: HUVEC cultured 2-dimensionally on hydrogels: cell attachment and morphology; type: cell-based; parameters: key to Capillary like morphology: weak: +; medium: ++; strong: +++; very strong: ++++; conditions: HUVEC cultured on hydrogels
Description: The effect of functional modified peptide matrix to HUVEC (human umbilical vein endothelial cells) was evaluated by culturing cells 2-dimensionally on the gel.
The peptide solutions shown in Table 19 were loaded in the culture inserts (10 mm diameter, Millicell-CM, Millipore) and gels were formed using cell culture medium (EGM-2-MV, Camblex). Collagen-1 and Matrigel were used as control matrices. HUVEC (human umbilical vein endothelial cells) were plated at 8×10^4 cells on the inserts and cultured up to 7 Days.

[2] = Isoelectric plot and rheological data when 0.1 N NaOH is added (pH of gel formation); type: physicochemical; conditions: 1% solution, 0.1 N NaOH solution added
Excerpt: At the point of pH 3.6, the viscous solution become gel and has a higher G′ (stiffness), G″ (viscosity) value. When the pH is increased, the gel breaks into small pieces and it becomes a solution with precipitated peptides. At lower pH, the peptide forms fibers and the fibers make the solution viscous. When the pH becomes higher, and approaches the pI value, the peptide fibers lose their charge and aggregate to form gel. The same gel formation happens when the peptide charge is screened by salts in a salt-containing solution (e.g., a solution containing a gellation agent or an iso-osmotic solute). Once the gel is formed, the fiber structure is broken into pieces to form a precipitate particle.
(§1) A comparison of the pH dependent property of 1% Ac(RADA)4GGFHRRIKA CONH2 (SEQ ID NO. 6) solution (Code: FHR), self assembling peptide sequence was compared with the heparin-binding motif. FIG. 12 depicts the isoelectric plot and corresponding rheological data when 0.1 N NaOH solution is added to FHR solution to adjust pH. The net charge of the peptide molecule is kept ≧2 when pH<10. Until at point of pH 5.7, the solution keeps viscous state. This movement of pH point where the peptide solution become gel is controlled by the charge induced by the additional motif to the self-assembling peptide. The induced charge prevents the peptide to aggregate to form the gel. Thus, the cell and the peptide solution can be mixed near neutral pH. After complete mixing, the gel formation can be made by adding salt containing solution (e.g., a solution containing a gellation agent or an iso-osmotic solute).
FIG. 18 depicts the isoelectric plot and Rheological data of PFS 1% solution when 0.1 N NaOH solution is added. 1% Ac(RADA)4GGSKPPGTSS-CONH2 solution (Code: SKP, peptide sequence: SEQ ID NO. 7) is a hydrogel composed of peptides with a self-assembling sequence and positively-charged functional motif. Although the pI value of the peptide is 9.74 and it keeps positive charge at near pH 7 range, the gel is formed at the point of pH 4.5. […]

[3] = pI and charge of the self-assembling peptide; type: physicochemical
Description: as §1
FIG. 18 depicts the isoelectric plot and Rheological data of PFS 1% solution when 0.1 N NaOH solution is added. 1% Ac(RADA)4GGSKPPGTSS-CONH2 solution (Code: SKP, peptide sequence: SEQ ID NO. 7) is a hydrogel composed of peptides with a self-assembling sequence and positively-charged functional motif. Although the pI value of the peptide is 9.74 and it keeps positive charge at near pH 7 range, the gel is formed at the point of pH 4.5. This is because the charge of the molecule around pH 7 range is +1 and smaller than the charge of Ac(RADA)4GGFHRRIKA CONH2 (FHR) (bigger than 3). The charge of the whole peptide should be larger than 2 when the cell is mixed. This pH should be somewhere in 6-8 in order to minimize the damage to the cells. As this sequence is heparin-binding motif, the fiber can attach to the heparin molecule which is abundant at cell surface. This heparin-binding motif provides a specific anchor to the cell. As described in Example 1, this binding synergistically works with the other binding motif (e.g., RGD) to induce biological stimuli for cell proliferation and differentiation. This effect is not limited to the sequences previously describe, but the other motifs, including -XBBXBX- and -XBBBXXBX- sequences. […]

bFGF = bFGF (Homo sapiens, UniProt P09038); test: bFGF retention in peptide matrix (ELISA); conditions: bFGF 175 ng/insert loaded after gelation; during PBS washing and culturing; FIG. 19
bFGF, sequence (P09038 143-288, species assumed): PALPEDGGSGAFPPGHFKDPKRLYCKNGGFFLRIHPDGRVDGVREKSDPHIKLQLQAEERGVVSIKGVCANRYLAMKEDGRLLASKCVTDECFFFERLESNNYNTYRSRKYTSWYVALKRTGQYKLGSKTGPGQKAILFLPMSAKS
Description: The effect of protein retention and delivery using the self-assembling peptide were studied (Table 11). bFGF was used as a model protein. The retention of bFGF in different peptide matrix in different charge condition was measured by ELISA after washing by PBS. After washing out unbound bFGF, the effect of protein retention to self-assembling peptide matrix were evaluated the using cell culturing of HUVEC (human umbilical vein endothelial cells).
The peptide solutions provided in Table 12 were loaded in the culture inserts (10 mm diameter, Millicell-CM, Millipore) and gels were formed using PBS. After gelation, bFGF solution in PBS was added inside and outside and plated for overnight. bFGF was loaded at 175 ng/insert. After loading bFGF, the PBS inside and outside the inserts were exchanged three times (2 hours, 9 hours and 12 hours) to remove unbound bFGF (Washing). After the washing, the PBS was exchanged to the cell culture medium (EGM-2-MV, Camblex) without attached growth factor (bFGF, VEGF and EGF) and placed more than a day (such that the fluid contained in the gel is exchanged from PBS to cell culture medium), then HUVEC (human umbilical vein endothelial cells) were plated at 7.5×10^4 cells on the inserts and cultured for three days.
Cell culturing using cell culture medium (EGM-2-MV) was used without attached growth factor on peptide matrix as negative control. Cell culturing using cell culture medium (EGM-2-MV) was used with attached growth factor on peptide matrix without loading growth factor as positive control. The bFGF concentration in washing buffer (PBS) and cell culture medium (EGM-2-MV) was measured using ELISA. The washing buffer and cell culture medium were exchanged at each measurement period (2 hours, 9 hours and 12 hours for washing, and at the cell seeding (D0), Day 1 (D 1), Day 2 (D2) and Day 3 (D3)). Growth factor retention rate was calculated by accumulating the amount of measured bFGF.

Substance | Capillary like morphology [1] | Cell attachment [1] | pH at which the viscous peptide solution becomes gel [2] | charge [3] | pI [3] | charge of the molecule around pH 7 range ([3]; around pH 7) | net charge of the peptide molecule ([3]; when pH<10) | bFGF (growth factor) retention rate (bFGF)
Ac(RADA)4GGFHRRIKA-CONH2 (Ac-RADARADARADARADAGGFHRRIKA-NH2) [FHR = 1% solution; FHR-2P = 2% solution] | + | ++ (++: 20-50%) | 5.7 | positively charged | 11.32, | > 3 | ≥ 2 | high in the order of KFQ-2P, FHR-2P, RAD-2P then DGR-2P
Ac(RADA)4-CONH2 | – | + (+: Weak(<20%)) | 3.6 | neutral | 6.1 | – | – | high in the order of KFQ-2P, FHR-2P, RAD-2P then DGR-2P
